B1: HAstV8 VP90^72-782 (domain or fragment)
chain: QGVTGPKPAICQTATATLGTIGSNTTGATEIEACILLNPVLVKDATGSTQFGPVQALGAQYSMWKLKYLNVRLTSMVGASAVNGTVVRISLNPTSTPSSTSWSGLGARKHLDVTVGKNAVFKLKPSDLGGPRDGWWLTNTNDNASDTLGPSIEIHTLGQTMSSYQNTQFTGGLFLVELSSAWCFTGYAANPNLVNLVKSTDKSVNVTFEGSAGTPLIMNVPEHSHFARTAVEHSSLSTSLSRAGGESSSDTVWQVLNTAVSAAELVTPPPFNWLVKGGWWFVKLIAGRARTGARRFYVYLSYQDALSNKPALCTGGVPASARQSNPVRTTLQFTQMNQPSLGHGATPMTFGRSIPEPGEQFRVLLTVGPPMAPNTANSQNWVNKTIVPPENQYTVKIGIDLEHYTTMQGFTPVESVSWYTADFQPSDEPSPIPGLYARVNNTKKADVYGVQQFKSSHTNNRHQITSVFLVRVTTSFQVINYTSYFIRGAESGSNVSNLKIRDQTYHTPLQFTQGKWYLLTSTVMHDGPTSSGWVWMNQELTNNIAYRVDPGMMYLITPPPAASQLYFELHTVLPQARSEEPETYVDAPLPEEPPIEEEETDSDFESTEDENDEVDRFDLHPSSESDDDDVENDRATLLSTLLNQGISVERATRITNGAFPTRAARVRRSVYNDLLVSGLSPGAAWSHACEQARRAGDNHDLQLSGSRDHAE
notes: Capsid polyprotein precursor VP90 of human astrovirus serotype 8 (strain Yuc8), residues 72-782, N-terminal truncation; The results name the vector pET28a, the methods pET-SUMOc with an N-terminal 6xHis-SUMO tag; also called aa72–782; source: E. coli (Rosetta 2 (DE3) or BL21), purified (HisTrap, Superdex size exclusion)
B2: HAstV8 VP90^14-782 (domain or fragment)
chain: NNNGRSRSKSRARSQSRGRGRSVKITVNSHNKGRRQNGRNKYQSNQRVRKIVNKQLRKQGVTGPKPAICQTATATLGTIGSNTTGATEIEACILLNPVLVKDATGSTQFGPVQALGAQYSMWKLKYLNVRLTSMVGASAVNGTVVRISLNPTSTPSSTSWSGLGARKHLDVTVGKNAVFKLKPSDLGGPRDGWWLTNTNDNASDTLGPSIEIHTLGQTMSSYQNTQFTGGLFLVELSSAWCFTGYAANPNLVNLVKSTDKSVNVTFEGSAGTPLIMNVPEHSHFARTAVEHSSLSTSLSRAGGESSSDTVWQVLNTAVSAAELVTPPPFNWLVKGGWWFVKLIAGRARTGARRFYVYLSYQDALSNKPALCTGGVPASARQSNPVRTTLQFTQMNQPSLGHGATPMTFGRSIPEPGEQFRVLLTVGPPMAPNTANSQNWVNKTIVPPENQYTVKIGIDLEHYTTMQGFTPVESVSWYTADFQPSDEPSPIPGLYARVNNTKKADVYGVQQFKSSHTNNRHQITSVFLVRVTTSFQVINYTSYFIRGAESGSNVSNLKIRDQTYHTPLQFTQGKWYLLTSTVMHDGPTSSGWVWMNQELTNNIAYRVDPGMMYLITPPPAASQLYFELHTVLPQARSEEPETYVDAPLPEEPPIEEEETDSDFESTEDENDEVDRFDLHPSSESDDDDVENDRATLLSTLLNQGISVERATRITNGAFPTRAARVRRSVYNDLLVSGLSPGAAWSHACEQARRAGDNHDLQLSGSRDHAE
notes: Capsid polyprotein precursor VP90 of human astrovirus serotype 8 (strain Yuc8), residues 14-782, N-terminal truncation; The results name the vector pET28a, the methods pET-SUMOc with an N-terminal 6xHis-SUMO tag; also called aa14–782; source: E. coli (Rosetta 2 (DE3) or BL21), purified (HisTrap, Superdex size exclusion)
B3: HAstV8 VP90^28-782 (domain or fragment)
chain: QSRGRGRSVKITVNSHNKGRRQNGRNKYQSNQRVRKIVNKQLRKQGVTGPKPAICQTATATLGTIGSNTTGATEIEACILLNPVLVKDATGSTQFGPVQALGAQYSMWKLKYLNVRLTSMVGASAVNGTVVRISLNPTSTPSSTSWSGLGARKHLDVTVGKNAVFKLKPSDLGGPRDGWWLTNTNDNASDTLGPSIEIHTLGQTMSSYQNTQFTGGLFLVELSSAWCFTGYAANPNLVNLVKSTDKSVNVTFEGSAGTPLIMNVPEHSHFARTAVEHSSLSTSLSRAGGESSSDTVWQVLNTAVSAAELVTPPPFNWLVKGGWWFVKLIAGRARTGARRFYVYLSYQDALSNKPALCTGGVPASARQSNPVRTTLQFTQMNQPSLGHGATPMTFGRSIPEPGEQFRVLLTVGPPMAPNTANSQNWVNKTIVPPENQYTVKIGIDLEHYTTMQGFTPVESVSWYTADFQPSDEPSPIPGLYARVNNTKKADVYGVQQFKSSHTNNRHQITSVFLVRVTTSFQVINYTSYFIRGAESGSNVSNLKIRDQTYHTPLQFTQGKWYLLTSTVMHDGPTSSGWVWMNQELTNNIAYRVDPGMMYLITPPPAASQLYFELHTVLPQARSEEPETYVDAPLPEEPPIEEEETDSDFESTEDENDEVDRFDLHPSSESDDDDVENDRATLLSTLLNQGISVERATRITNGAFPTRAARVRRSVYNDLLVSGLSPGAAWSHACEQARRAGDNHDLQLSGSRDHAE
notes: Capsid polyprotein precursor VP90 of human astrovirus serotype 8 (strain Yuc8), residues 28-782, N-terminal truncation; The results name the vector pET28a, the methods pET-SUMOc with an N-terminal 6xHis-SUMO tag; Forms rod-shaped assemblies of about 20 nm diameter and variable length; also called aa28–782; source: E. coli (Rosetta 2 (DE3) or BL21), purified (HisTrap, Superdex-200 size exclusion)

Target: the molecule itself
Test: SEC; Superdex-200 or Superdex-75 size exclusion column; 50 mM Tris-HCl pH 8.0, 150 mM NaCl, 1 mM NaN3; self-association judged from the elution profile

Protein	stoichiometry N	binding result
B1	2	
B2		binds
B3		binds
